Measurements reported in US6673571B2, “Polypeptides having aminopeptidase activity and nucleic acids encoding same” (Novozymes Biotech, Inc., priority 1997, dated 2004).

Assays:
[1] = pH optimum / pH profile with Ala-pNA; assay type: biochemical; details: room temperature
Protocol: The pH optimum for the 67 kDa aminopeptidase I was determined using the following protocol. The buffer solutions at different pH's were prepared by adding distilled water to 4.25 g of sodium acetate and 3.78 g of Tris (free base) to a final volume of 250 ml and adjusting the pH to 8.5, 8.0, 7.5, 7.0, 6.5, 5.80, 5.5, and 5.0 with 36.5-38% HCl. Aliquots of 10 ml were removed at each pH. A 20 μl volume of a 100 mg/ml solution of Ala-pNA in DMSO was added to 980 μl of each buffer solution. The pH was then determined to be 8.5, 8.0, 7.57, 7.30, 7.09, 6.68, 6.14, and 5.25 for the buffer solutions after the addition of the substrate. Another solution of substrate at a concentration of 2 mg/ml was prepared at the various pHs. The reaction was initiated by the addition of 10 μl of enzyme solution, diluted 5-fold in 10 mM Tris-HCl pH 7.5, to 200 μl of substrate at the various pHs at room temperature and monitored at 405 nm.
There was no detectable autohydrolysis of Ala-pNa in the pH range 5.25-8.5.

[2] = Substrate specificity: initial rates of hydrolysis of para-nitroanilides; assay type: biochemical; details: pH 7.5, 25° C.
Protocol: Stock solutions of 100 mg of each para-nitroanilide per ml of dimethylsulfoxide were diluted with 50 mM sodium phosphate pH 7.5 buffer to concentrations of 2 mg per ml. Where the substrates were incompletely soluble, their suspensions were used (shown with an asterisk in Table 2 below). The reaction of the Sphingomonas capsulata aminopeptidase I with each para-nitroanilide was initiated when a 10 μl aliquot of the enzyme solution in 50 mM sodium phosphate pH 7.0 buffer was added to 190 μl of a substrate solution in a 96 well microtiter plate. Analysis of initial rates of hydrolysis of the para-nitroanilides was monitored at 405 nm and 25° C. in a THERMOmax Microplate Reader (Molecular Devices Corp., Sunnyvale, Calif., USA).

[3] = Specific activity in alanyl-aminopeptidase units (AAU); assay type: biochemical; details: Ala-pNa, pH 7.5, 22° C.
Protocol: The aminopeptidase I dosages used were based on alanyl-aminopeptidase units (AAU) determined by the hydrolysis of Ala-pNa at pH 7.5. One AAU unit of the aminopeptidase I is defined as the quantity of an enzyme which hydrolyses 1.0 micromole of Ala-pNa per minute in a 9.1 mM solution of Ala-pNa at pH 7.5, 22° C., and ionic strength=0.05.
The specific activity of the purified aminopeptidase I was approximately 12 AAU/mg enzyme. Therefore, a dosage of 0.24 AAU per 200 mg soy protein, for example, corresponded to 0.1 g enzyme per kg soy protein.

[4] = Temperature stability (residual activity after 20 minutes incubation); assay type: physicochemical; details: pH 7.5
Protocol: The temperature stability of aminopeptidase I was determined by incubating the enzyme for 20 minutes in 50 mM sodium phosphate pH 7.5 buffer at temperatures in the range of 35° C. to 55° C. followed by cooling on ice and measuring the residual activity using Ala-pNA as substrate at pH 7.5 as described above.

[5] = pH optimum / pH profile with Ala-pNA; assay type: biochemical
[6] = Isoelectric point by activity staining method; assay type: physicochemical; details: freshly prepared enzyme
From the text: The isoelectric point of the aminopeptidase is variable since the isoelectric point of the freshly prepared enzyme is estimated as 8.4 using an activity staining method, however, the isoelectric point varies from 7.4 to 8.5 during the course of purification and/or storage. The uncertainty of the isoelectric point may be due to the self digestion of the aminopeptidase from its amino terminal.

B1: Sphingomonas capsulata aminopeptidase I: purified aminopeptidase of 67 kDa from Sphingomonas capsulata IFO 12533; deduced amino acid sequence SEQ ID NO:2 (protein)
chain: MRKTPQGIGLLSALSTSTLALATLILAQPALAQVQPASNSRPMAVPIAHGVPDAQDVPYPGTIGLQIDATDLATGAFRVVETVPVAADAKELILQLPAWLPGEHGNRGPVAELAGITFEAKGQKLAWTRDPVEVNAFHIPLPAGTSEVVARFIHTSPLRDSEGRITVTREMLNVQWEKMSLYPAGHYVRQIKVRPTVSFPQGWTVFTALDGKTQSGAGNTVTWAETDYETLVDSPIFAGLYAARHDLGHNVYFDLVADKPELLAIKPENLAAYRNLADEAVGAFGARHFDHYDFLLALTDRMGSIGLEHHRSSENQQEPKSLTDWAAYDWDRNVIAHEFSHSWDGKYRRSAKLWTPDYRQPMQDNLLWVYEGQTQFWGLVLAARSGVQSKDVVLGSLANYAGTFTQTAGRDWRSVEDTTMDPIFAARKPKPYSSLTRNEDYYTEGALVWLEADQIIRDGTGGKKGLDDFAKAFFGVRDGDWGVLTYEFDDVVKTLNGVYPYDWATFLKTRLQTPGQPVPLGGIERGGYKLEFKDEPNPYDKARMADAKVLSLFNSLGVTLDKDGKVTASRWDGPAFKAGLVSGMQVMAVNGDAYDADKLKGAITNAKTGNPGAGRPIELLVKRDDRFVTLPITYADGLRWPWLVRTAPGTAPTGLDKLLAPHASKLPVGKAAK
**Q.** For B1, which “Relative activity (%)” value ([1]; pH 5.25, Ala-pNA) is on record?
**A.** Its value is 24.9%.

**Q.** What about the “Relative activity (%)” value ([1]; pH 6.14, Ala-pNA) of the same molecule?
**A.** Its value is 56.4%.

**Q.** And the “Relative activity (%)” value ([1]; pH 6.68, Ala-pNA)?
**A.** Its value is 78.4%.

**Q.** And the “Relative activity (%)” value ([1]; pH 7.09, Ala-pNA)?
**A.** The value was 99.4%.

**Q.** And the “Relative activity (%)” value ([1]; pH 7.30, Ala-pNA)?
**A.** The value was 100%.

**Q.** And the “Relative activity (%)” value ([1]; pH 7.57, Ala-pNA)?
**A.** Its value is 92.8%.

**Q.** What about the “Relative activity (%)” value ([1]; pH 8.0, Ala-pNA) of the same molecule?
**A.** Its value is 61%.

**Q.** What about the “Relative activity (%)” value ([1]; pH 8.49, Ala-pNA) of the same molecule?
**A.** Its value is 24.2%.

**Q.** And the “Relative activity (%)” value ([2]; Ala p-nitroanilide)?
**A.** The value was 100%.

**Q.** And the “Relative activity (%)” value ([2]; Asp p-nitroanilide)?
**A.** The value was 4.5%.

**Q.** And the “Relative activity (%)” value ([2]; Glu* p-nitroanilide (suspension))?
**A.** The value was 6%.

**Q.** What about the “Relative activity (%)” value ([2]; Gly* p-nitroanilide (suspension)) of the same molecule?
**A.** The value was 20%.

**Q.** And the “Relative activity (%)” value ([2]; Ile p-nitroanilide)?
**A.** The value was 0.5%.

**Q.** What about the “Relative activity (%)” value ([2]; Leu p-nitroanilide) of the same molecule?
**A.** The value was 18.5%.

**Q.** What about the “Relative activity (%)” value ([2]; Lys p-nitroanilide) of the same molecule?
**A.** The value was 6%.

**Q.** And the “Relative activity (%)” value ([2]; Met p-nitroanilide)?
**A.** The value was 24%.

**Q.** And the “Relative activity (%)” value ([2]; Phe* p-nitroanilide (suspension))?
**A.** The value was 0%.

**Q.** And the “Relative activity (%)” value ([2]; Pro p-nitroanilide)?
**A.** Its value is 0%.

**Q.** What about the “Relative activity (%)” value ([2]; Val p-nitroanilide) of the same molecule?
**A.** The value was 0.5%.

**Q.** And the specific activity [3]?
**A.** Its specific activity is “approximately 12 AAU/mg enzyme”.

**Q.** What about the residual activity ([4]; 45° C.) of the same molecule?
**A.** The residual activity was “approximately 60%”.

**Q.** What about the residual activity ([4]; 50° C.) of the same molecule?
**A.** Its residual activity is “completely inactivated”.

**Q.** And the temperature stability ([4]; up to 40° C.)?
**A.** Its temperature stability is “approximately 100%”.

**Q.** And the Km ([5]; Ala-pNA, pH 7.5)?
**A.** The Km was 2500 µM.

**Q.** And the “kinetics of hydrolysis of Ala-pNA” value ([5]; pH 5.5, apparent Km and Vmax negative due to activation by substrate)?
**A.** Its value is “did not follow Michaelis-Menten kinetics”.

**Q.** And the isoelectric point [6]?
**A.** The isoelectric point was roughly 8.4.
